Target: recombinant FGF-2 (rFGF-2) of SEQ ID NO: 2 (bovine) (UniProt P03969)
Test: commercial ELISA for human FGF-2 (R&D Systems), cross-reactivity against human FGF-2

Sequence of UniProt P03969 (P03969 10-155 limits assumed): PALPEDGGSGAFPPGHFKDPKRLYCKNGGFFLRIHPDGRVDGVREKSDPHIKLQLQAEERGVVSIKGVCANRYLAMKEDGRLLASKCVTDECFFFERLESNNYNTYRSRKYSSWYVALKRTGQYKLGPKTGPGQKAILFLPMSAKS

commercially available ELISA (R&D Systems, Minneapolis Minn.) that was marketed for analysis of human FGF-2 (antibody)
cross-reactivity: 100%
